Drawing on publication PMC3072391, this text covers FRET ratio relative to NS5BΔ21-1b for 1 substance.

Where two headings read alike, the source gives them in different places. A value given as a limit tells only on which side of the number the result lay.

The target of test [1] is NS5BΔ21-5a fused to cyan or citrine fluorescent protein (hepatitis C virus genotype 5a (patient isolate)). As to the kind of experiment: FRET or BRET; in vitro; purified NS5BΔ21-cyan and NS5BΔ21-citrine of the same genotype mixed equimolar, 50 nM each; 10 mM NaCl and 4.5 mM Mg(CH3COO)2; excitation 432 nm, FRET ratio = emission 530 nm/478 nm, normalised against NS5BΔ21-1b; twelve independent experiments. On the technique in general: In BRET a luciferase serves as donor, and the signal depends on an acceptor being close.

Test [2] shares this target. Described as above. The source holds these as a separate data set.

Turning to “NS5BΔ21-5a fused to cyan or citrine fluorescent protein (enzyme)”, the FRET ratio relative to NS5BΔ21-1b in test [1] is < 50%; in test [2], 40%.
